Results as given in article PMC2856799.

How the values were obtained:
[1] = molecular target: Insulin (Pekar and Frank 1972 preparation); experiment: Sedimentation equilibrium; details: pH 7.0; 24.5 °C; ionic strength 0.1; not stated (pH 7.0); scale: log10; cited from earlier work
Insulin (zinc-free) = Insulin (zinc-free) (UniProt P01317); experiment: Composition-gradient static light scattering; details: pH 10.0, 25 °C, 0.095 M NaCl, 5.3 mM glycine, 3.2 mM NaOH, scale: log10
Chain of UniProt P01317 (P01317 whole entry): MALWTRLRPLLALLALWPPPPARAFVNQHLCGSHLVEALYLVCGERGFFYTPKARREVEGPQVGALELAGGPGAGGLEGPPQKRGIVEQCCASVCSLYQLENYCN

| log10(Ka) (enhanced isodesmic; monomer addition to dimer and higher oligomers) (Insulin (zinc-free)) | Substance | log10(K6a) (stepwise hexamer addition) [1] | log10(K12) (monomer-dimer) [1] | log10(K26) (3 dimers -> hexamer) [1] | log10(Ka) (isodesmic) [1] |
| --- | --- | --- | --- | --- | --- |
| – | Insulin (Pekar and Frank 1972 preparation) | 3.69 | 5.64 | 8.36 | 4.43 |
| 3.82 | Insulin (zinc-free) | – | – | – | – |
